± gives the half width of the 95% confidence interval.
Assays:
[1] = folding stability dG unfold from chymotrypsin proteolysis; higher = more stable
Method in brief: (§1)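 Sequencing followed digestion of designed mini-proteins with trypsin and chymotrypsin, each at 11 concentrations in threefold dilutions together with a no-protease condition. The mini-proteins were under 80 residues, had no cysteine, sat in a PA-tagged cDNA display construct, and were kept only if AlphaFold2 dimer inter-PAE was above 15. From the counts, Bayesian fitting gave K50, and unfolding free energy was derived against a sequence-predicted unfolded-state K50 and a shared folded-state K50, per protease or combined.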

[2] = folding stability dG unfold (combined trypsin and chymotrypsin); higher = more stable
Method in brief: as §1

[3] = folding stability dG unfold from trypsin proteolysis; higher = more stable
Method in brief: as §1

| Sequence | folding stability dG unfold [1] [kcal/mol] | folding stability dG unfold [2] [kcal/mol] | folding stability dG unfold [3] [kcal/mol] |
| --- | --- | --- | --- |
| SAGGSMQSVTSYDPNGVTYTTEFLPDEDVVTYTKTTDGTVTTTKVERLDEDGVPVPLSTSTTTLGGSAGGSA [r2_60_JUSTAS] | -0.217 ± 0.29 | 0.107 ± 0.16 | 0.208 ± 0.085 |
| SAGGSAGGSDPAKKPVYLLATVEVEIGEVVDPNTGEPSHEHRVTVRFLITIDPDGNISISSLTSAGGSAGGS [r12_438_TrMRF] | 3.25 ± 0.18 | 3.15 ± 0.21 | 2.9 ± 0.2 |
| SAGGSAGGSAGGSEKPPIKLKIKVYDPETNELVSEVEVELEPGQSLEELLKKFDVVEIESAGGSAGGSAGGS [r4_187_TrROS_Hall] | 2.94 ± 0.064 | 2.66 ± 0.12 | 1.71 ± 0.1 |
| SAGGSAGGSADPNAFPITIFTFKMEIEDVEKTPNGQPELRYKMEVVEIRPIWLPPDDLEDLSAGGSAGGSAG [r3_121_TrROS] | 4.39 ± 0.097 | 3.79 ± 0.15 | 3 ± 0.16 |
| SAGNDEEDQKKAEEQQKPPLEIEPIRVMVMVPFPGGDLLISITIPIIKYPDGGIIIPIPIEIIPLEDISAGG [r19_11_TrROS] | 2.84 ± 0.085 | 2.5 ± 0.1 | 2.06 ± 0.093 |
| SAGGSAKWELSIWIPAPGMTPDKARELARDIAREFAQPGWKVKDIEVEPVNPDENVYRGTVTIEPPSAGGSA [r15_96_TrROS] | 1.82 ± 0.11 | 1.49 ± 0.13 | 0.951 ± 0.04 |
| SAGGSAGGGFILEVDPEKGVAVAYFDPSTGEVVVAVPEGPVYRFASAEEVVAATGKPVVIVPATSAGGSAGG [r6_752_TrMRF] | 0.702 ± 0.044 | 0.966 ± 0.054 | 1.17 ± 0.024 |
| SMKIIIEIEVEPGKTEEEIKEEAEALAKELAKKLGLPKEAKVKIEKVKLEDGKLRYIITIEVDGKTIEFESA [r9_776_TrROS_Hall] | 3.63 ± 0.064 | 3.75 ± 0.24 | 3.72 ± 0.29 |
| SAGGAVEVKEIKILPPVLDPEGDPSNPLLRVEITTKITENTPEGKKILEKTKTYLVSPENLEEVLKKLSAGG [r13_149_JUSTAS] | 1.98 ± 0.07 | 2.18 ± 0.13 | 2.05 ± 0.065 |
| SMPPGERYRMTMKFPDGKKITLEMNPGGWWRIKVENKNGKPQHQQPIPPDNPQELAENFGIDKVTDVEPVSA [r9_1107_TrROS] | 2.02 ± 0.2 | 2.05 ± 0.17 | 2.01 ± 0.095 |
| SAGFWIRIDPKNPRIYISGMPPGMIELIAENAGAPDVTPVKPGRPWWDARDNHPDPDAVIPIPPENMMSAGG [r19_270_TrROS] | -0.39 ± 0.39 | 0.0233 ± 0.24 | 0.319 ± 0.16 |
| SAGGSAGGSAGKVVLAKAKVTPPDGSEYEFDLAIEVPDDVVLVVGLHFDYPDQVDFVFEGSAGGSAGGSAGG [r11_781_TrMRF] | 1.14 ± 0.017 | 1.2 ± 0.072 | 1.28 ± 0.03 |
| SAGGSAGGSAGTMTAEEIAKALGAKVVEVYPDKVVIEIEVDGKKYRITINEDGEVTVEEVSAGGSAGGSAGG [r17_252_TrROS_Hall] | 4.47 ± 0.15 | 4.02 ± 0.21 | 2.62 ± 0.11 |
| SAGGLEEIAEKIAEELKKKGYKAEIKEVVKPPTNEVVIKYTVTYKDKNEIIEEEEKEITFKLPPGLESAGGS [r8_102_JUSTAS] | 0.741 ± 0.14 | 0.377 ± 0.16 | -0.556 ± 0.16 |
| SAGGSPERSAEELAEELAERIRELLREEAASFELPLHVHIVVPDPEGRRREFDVEVHVRVEVPEDARSAGGS [r16_550_TrMRF] | 1.14 ± 0.034 | 1.05 ± 0.054 | 0.898 ± 0.025 |
| SAGGSAGGSAGMEFEVLEVIPPELLAEGGEITVGLPDGERLLVRVSPDGGVKEVRLLPPESAGGSAGGSAGG [r17_2_TrMRF] | -0.435 ± 0.22 | 0.236 ± 0.16 | 0.811 ± 0.12 |
| SKKVKIVIKIKVEVTNKDGKKKTFEFTLVIELSEEEIEKLKKKIEDLLNELKKKYPNIKKVEITEIKILPSA [r9_436_TrROS_Hall] | 4.4 ± 0.32 | 4.31 ± 0.62 | 3.59 ± 0.26 |
| SAGMKVTTFTTPTRTVTVTLTPDGTVTVTVTDPSGNPTVTAPDGTPVASTTAPDGTTTFTLDPALFAAASAG [r5_457_JUSTAS] | 0.965 ± 0.1 | 0.896 ± 0.073 | 0.717 ± 0.047 |
| SAGGSMERTVELTYTFKDKPIKITITVTTDPETGTVTVPIEIETEDEKIKEPALEKAKELAEELLASAGGSA [r2_259_JUSTAS] | 0.26 ± 0.13 | 0.301 ± 0.12 | 0.133 ± 0.065 |
| SAGGSAGGSAGGSIEPITIILPDKIIRIYRFEDGTIVEIIDPETGKPTFISLEDAKKLIGSAGGSAGGSAGG [r7_372_TrMRF] | 2.81 ± 0.043 | 2.61 ± 0.16 | 2.33 ± 0.14 |
| SAGAVEKLRKELEELGYEVELEEVEDEETGKTYFILRIRNPDGEIYEIKVDKKTGEIVEIFKVDNLEELSAG [r5_938_TrROS_Hall] | 4.17 ± 0.064 | 4.14 ± 0.19 | 3.83 ± 0.17 |

Source: the supplement of paper PMC12764529
